According to patent US20140087995A1 (published 2014):
Numbered stars: 1 amine (or outer) side, 2 acyl side, 3 side chain; on linkers, the order of the positions; unused ones are H or OH. Bridge positions count the residues as written; N and C are the ends. Side chains are listed from the residue outwards. Ends that are not written are not given here. * marks the point of attachment. C20 diacid = O=C(O)CCCCCCCCCCCCCCCCCCC(=O)*; γGlu = O=C(O)[C@H](CCC(=O)[*:2])N[*:1]

T1: rat calcitonin receptor (rat, UniProt P32214 25-516)
T1 construct: whole, on cells; also called rCTR; rat calcitonin (a) receptor
T1 sequence (looked up): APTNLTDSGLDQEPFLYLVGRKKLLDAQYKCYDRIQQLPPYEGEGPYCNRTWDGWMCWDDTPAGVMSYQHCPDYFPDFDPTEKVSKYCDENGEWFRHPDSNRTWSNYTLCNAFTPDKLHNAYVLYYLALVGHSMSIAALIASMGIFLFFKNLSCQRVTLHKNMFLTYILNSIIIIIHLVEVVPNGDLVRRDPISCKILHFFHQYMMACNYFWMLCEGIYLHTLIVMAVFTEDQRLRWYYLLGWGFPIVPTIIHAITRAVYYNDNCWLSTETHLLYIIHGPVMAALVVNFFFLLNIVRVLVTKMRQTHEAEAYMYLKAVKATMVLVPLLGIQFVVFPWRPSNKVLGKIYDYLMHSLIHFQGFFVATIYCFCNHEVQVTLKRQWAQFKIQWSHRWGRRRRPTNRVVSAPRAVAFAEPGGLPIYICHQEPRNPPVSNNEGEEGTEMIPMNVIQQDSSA

T2: rat amylin receptor (rat calcitonin receptor + rat RAMP 3) (rat, UniProt P32214 25-516; Q9JJ73 23-147)
T2 construct: whole, on cells; also called rAmylin-R; rat amylin 3(a) receptor
T2 sequence (looked up) 1: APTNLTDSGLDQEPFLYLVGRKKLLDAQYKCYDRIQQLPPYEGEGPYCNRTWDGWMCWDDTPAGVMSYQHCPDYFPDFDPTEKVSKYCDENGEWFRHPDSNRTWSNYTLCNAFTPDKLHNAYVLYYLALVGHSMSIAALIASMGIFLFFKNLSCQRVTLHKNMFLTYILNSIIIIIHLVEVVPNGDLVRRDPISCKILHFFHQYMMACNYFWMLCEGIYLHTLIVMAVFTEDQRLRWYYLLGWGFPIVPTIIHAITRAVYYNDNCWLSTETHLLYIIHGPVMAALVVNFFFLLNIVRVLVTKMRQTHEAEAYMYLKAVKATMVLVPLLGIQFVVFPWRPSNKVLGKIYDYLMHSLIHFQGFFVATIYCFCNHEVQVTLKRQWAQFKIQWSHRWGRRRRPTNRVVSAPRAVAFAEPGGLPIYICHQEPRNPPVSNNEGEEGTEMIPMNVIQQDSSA
T2 sequence (looked up) 2: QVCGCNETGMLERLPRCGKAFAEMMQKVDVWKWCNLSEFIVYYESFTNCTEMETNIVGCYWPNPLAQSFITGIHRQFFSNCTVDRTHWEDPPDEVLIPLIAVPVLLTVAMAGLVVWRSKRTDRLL

T3: human calcitonin receptor (human, UniProt P30988 25-474)
T3 construct: whole, on cells; also called hCTR; hCT
T3 sequence (looked up): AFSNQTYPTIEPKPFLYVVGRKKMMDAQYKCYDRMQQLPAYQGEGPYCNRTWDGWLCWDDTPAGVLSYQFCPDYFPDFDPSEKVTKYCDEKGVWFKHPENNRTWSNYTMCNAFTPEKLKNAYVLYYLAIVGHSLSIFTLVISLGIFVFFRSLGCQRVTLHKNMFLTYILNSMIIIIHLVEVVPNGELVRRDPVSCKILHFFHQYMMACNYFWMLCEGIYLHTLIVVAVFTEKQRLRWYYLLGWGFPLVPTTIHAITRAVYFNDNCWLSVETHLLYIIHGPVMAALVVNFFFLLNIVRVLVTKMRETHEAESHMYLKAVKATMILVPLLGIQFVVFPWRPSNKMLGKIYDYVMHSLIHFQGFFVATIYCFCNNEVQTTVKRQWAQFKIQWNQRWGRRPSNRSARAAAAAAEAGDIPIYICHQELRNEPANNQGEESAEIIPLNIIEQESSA


Key:
[1] = target: T1, rat calcitonin receptor; test: ratio of binding IC50s: rat calcitonin receptor over rat amylin receptor (reference)
[2] = target: T2, rat amylin receptor (rat calcitonin …); test: SPA competition with 125I-rat amylin, membranes of BHK cells with rat calcitonin receptor + rat RAMP3 (Assay VI)
[3] = target: T1, rat calcitonin receptor; test: SPA competition with 125I-calcitonin, membranes of BHK cells with rat calcitonin receptor (Assay VIII)
[4] = target: T3, human calcitonin receptor; test: ratio of binding IC50s: human calcitonin receptor over human amylin receptor (reference)
Outline: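 Competition binding by SPA uses membrane preparations (35 ng/μL final) in pH 7.4 Hepes buffer with 1 mM CaCl2 and 5 mM MgCl₂. Incubation lasts 120 min at 25° C, and IC₅₀ comes from one-site fitting.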

Binder | Ratio rCT/rAmylin binding [1] | IC50 [2] | IC50 [3] | Ratio hCT/hAmylin binding [4]
K([γGlu-C20 diacid])CNTATCATQRLAHFLRHSSPNFGAIPSSTNVGPNTY-NH2 (disulfide 2-7; N-terminus assumed; SMILES CC[C@H](C)[C@H](NC(=O)[C@H](C)NC(=O)CNC(=O)[C@H](Cc1ccccc1)NC(=O)[C@H](CC(N)=O)NC(=O)[C@@H]1CCCN1C(=O)[C@H](CO)NC(=O)[C@H](CO)NC(=O)[C@H](Cc1c[nH]cn1)NC(=O)[C@H](CCCNC(=N)N)NC(=O)[C@H](CC(C)C)NC(=O)[C@H](Cc1ccccc1)NC(=O)[C@H](Cc1c[nH]cn1)NC(=O)[C@H](C)NC(=O)[C@H](CC(C)C)NC(=O)[C@H](CCCNC(=N)N)NC(=O)[C@H](CCC(N)=O)NC(=O)[C@@H](NC(=O)[C@H](C)NC(=O)[C@@H]1CSSC[C@H](NC(=O)[C@@H](N)CCCCNC(=O)CC[C@H](NC(=O)CCCCCCCCCCCCCCCCCCC(=O)O)C(=O)O)C(=O)N[C@@H](CC(N)=O)C(=O)N[C@@H]([C@@H](C)O)C(=O)N[C@@H](C)C(=O)N[C@@H]([C@@H](C)O)C(=O)N1)[C@@H](C)O)C(=O)N1CCC[C@H]1C(=O)N[C@@H](CO)C(=O)N[C@@H](CO)C(=O)N[C@H](C(=O)N[C@@H](CC(N)=O)C(=O)N[C@H](C(=O)NCC(=O)N1CCC[C@H]1C(=O)N[C@@H](CC(N)=O)C(=O)N[C@H](C(=O)N[C@@H](Cc1ccc(O)cc1)C(N)=O)[C@@H](C)O)C(C)C)[C@@H](C)O, synthetic analogue of human amylin; also called compound 67) | 85.4 | 0.172 nM | 14.7 nM | 51.6
K([γGlu-γGlu-C20 diacid])CNTATCATQRLANFLRHSSPNFGAIPSSTNVGHNTY-NH2 (disulfide 2-7; N-terminus assumed; SMILES CC[C@H](C)[C@H](NC(=O)[C@H](C)NC(=O)CNC(=O)[C@H](Cc1ccccc1)NC(=O)[C@H](CC(N)=O)NC(=O)[C@@H]1CCCN1C(=O)[C@H](CO)NC(=O)[C@H](CO)NC(=O)[C@H](Cc1c[nH]cn1)NC(=O)[C@H](CCCNC(=N)N)NC(=O)[C@H](CC(C)C)NC(=O)[C@H](Cc1ccccc1)NC(=O)[C@H](CC(N)=O)NC(=O)[C@H](C)NC(=O)[C@H](CC(C)C)NC(=O)[C@H](CCCNC(=N)N)NC(=O)[C@H](CCC(N)=O)NC(=O)[C@@H](NC(=O)[C@H](C)NC(=O)[C@@H]1CSSC[C@H](NC(=O)[C@@H](N)CCCCNC(=O)CC[C@H](NC(=O)CC[C@H](NC(=O)CCCCCCCCCCCCCCCCCCC(=O)O)C(=O)O)C(=O)O)C(=O)N[C@@H](CC(N)=O)C(=O)N[C@@H]([C@@H](C)O)C(=O)N[C@@H](C)C(=O)N[C@@H]([C@@H](C)O)C(=O)N1)[C@@H](C)O)C(=O)N1CCC[C@H]1C(=O)N[C@@H](CO)C(=O)N[C@@H](CO)C(=O)N[C@H](C(=O)N[C@@H](CC(N)=O)C(=O)N[C@H](C(=O)NCC(=O)N[C@@H](Cc1c[nH]cn1)C(=O)N[C@@H](CC(N)=O)C(=O)N[C@H](C(=O)N[C@@H](Cc1ccc(O)cc1)C(N)=O)[C@@H](C)O)C(C)C)[C@@H](C)O, synthetic analogue of human amylin; also called compound 86) | 126 | 2.8 nM | 352 nM | 159
